Experiment [1] concerns the target Bacillus anthracis protective antigen (PA), 83 kDa polypeptide (Bacillus anthracis) (UniProt P13423).
Experiment [2] has the same target. The source holds these as a separate data set.

Bacillus anthracis protective antigen (PA), 83 kDa polypeptide (Bacillus anthracis), sequence (P13423 30-764 limits assumed): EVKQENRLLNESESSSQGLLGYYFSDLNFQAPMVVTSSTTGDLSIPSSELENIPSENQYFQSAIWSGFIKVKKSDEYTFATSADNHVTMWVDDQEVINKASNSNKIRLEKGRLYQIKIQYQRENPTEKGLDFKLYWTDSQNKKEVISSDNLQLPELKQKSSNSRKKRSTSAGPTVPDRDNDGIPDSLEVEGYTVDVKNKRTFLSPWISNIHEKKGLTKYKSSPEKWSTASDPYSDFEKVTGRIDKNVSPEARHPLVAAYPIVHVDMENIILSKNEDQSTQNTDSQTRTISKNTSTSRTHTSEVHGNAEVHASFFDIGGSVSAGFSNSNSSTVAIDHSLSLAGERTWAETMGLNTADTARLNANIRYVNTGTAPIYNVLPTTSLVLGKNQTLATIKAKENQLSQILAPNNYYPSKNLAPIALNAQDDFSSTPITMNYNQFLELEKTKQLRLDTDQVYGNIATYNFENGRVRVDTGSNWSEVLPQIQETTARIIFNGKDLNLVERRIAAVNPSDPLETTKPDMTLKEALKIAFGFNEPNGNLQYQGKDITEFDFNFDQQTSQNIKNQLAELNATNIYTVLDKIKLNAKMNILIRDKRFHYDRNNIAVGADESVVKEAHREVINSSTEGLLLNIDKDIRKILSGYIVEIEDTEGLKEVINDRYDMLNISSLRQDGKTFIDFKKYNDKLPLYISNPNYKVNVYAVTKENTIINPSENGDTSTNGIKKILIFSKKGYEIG

With 14B7 scFv with the mutation L97Leu:Ala, in experiment [1], the fold higher KD than 14B7 was over 5 fold. Further, in experiment [2], the dissociation constant Kd (in general, the constant that tells how readily two partners part at equilibrium) turned out to be 63 nM; the koff (commonly the rate constant with which the complex falls apart) was 0.019 s⁻¹; the on-rate constant (kon) (usually the second-order rate constant of association) amounted to 300000 M⁻¹ s⁻¹.

Values taken from US7446182.
